Measurements published in article PMC7229662 (Proceedings of the National Academy of Sciences of the …, 2020).

Molecular target: the molecule itself
Experiment: cryo-EM structure

B1: C331S variant of polycystin-2 (residues 53 to 792) (natural protein, human, UniProt Q13563 53-792, looked up)
chain: EIEMQRIRQAAARDPPAGAAASPSPPLSSCSRQAWSRDNPGFEAEEEEEEVEGEEGGMVVEMDVEWRPGSRRSAASSAVSSVGARSRGLGGYHGAGHPSGRRRRREDQGPPCPSPVGGGDPLHRHLPLEGQPPRVAWAERLVRGLRGLWGTRLMEESSTNREKYLKSVLRELVTYLLFLIVLCILTYGMMSSNVYYYTRMMSQLFLDTPVSKTEKTNFKTLSSMEDFWKFTEGSLLDGLYWKMQPSNQTEADNRSFIFYENLLLGVPRIRQLRVRNGSSSIPQDLRDEIKECYDVYSVSSEDRAPFGPRNGTAWIYTSEKDLNGSSHWGIIATYSGAGYYLDLSRTREETAAQVASLKKNVWLDRGTRATFIDFSVYNANINLFCVVRLLVEFPATGGVIPSWQFQPLKLIRYVTTFDFFLAACEIIFCFFIFYYVVEEILEIRIHKLHYFRSFWNCLDVVIVVLSVVAIGINIYRTSNVEVLLQFLEDQNTFPNFEHLAYWQIQFNNIAAVTVFFVWIKLFKFINFNRTMSQLSTTMSRCAKDLFGFAIMFFIIFLAYAQLAYLVFGTQVDDFSTFQECIFTQFRIILGDINFAEIEEANRVLGPIYFTTFVFFMFFILLNMFLAIINDTYSEVKSDLAQQKAEMELSDLIRKGYHKALVKLKLKKNTVDDISESLRQGGGKLNFDELRQDLKGKGHTDAEIEAIFTKYDQDGDQELTEHEHQQMRDDLEKEREDLDLD
  stoichiometry N: 4
